According to the Immune Epitope Database (IEDB):

Legend:
[1] = biological target: HLA-B*58:01; experiment: IEDB peptide-MHC binding, purified MHC/competitive/radioactivity; filed as Kd, often an IC50 or EC50 that approximates it; ≥ and ≤ were set here for values at or beyond the usual limits of such assays
[2] = biological target: HLA-B*18:01; experiment: IEDB peptide-MHC binding, purified MHC/direct/fluorescence; filed as Kd, often an IC50 or EC50 that approximates it; ≥ and ≤ were set here for values at or beyond the usual limits of such assays; details: source organism: Marburg virus - Musoke, Kenya, 1980
[3] = biological target: HLA-B*27:05; experiment: as above
[4] = biological target: HLA-B*48:01; experiment: as above
[5] = biological target: HLA-A*26:03; experiment: as above
[6] = biological target: HLA-A*02:01; experiment: as above
[7] = biological target: HLA-B*08:01; experiment: as above
[8] = biological target: HLA-A*26:01; experiment: as above
[9] = biological target: HLA-B*07:02; experiment: as above
[10] = biological target: HLA-B*57:01; experiment: as above
[11] = biological target: HLA-B*46:01; experiment: as above
[12] = biological target: HLA-B*08:03; experiment: as above
[13] = biological target: HLA-A*26:02; experiment: as above; details: source organism: Ravn virus - Ravn, Kenya, 1987
[14] = biological target: HLA-B*40:01; experiment: as above; details: source organism: Marburg virus - Musoke, Kenya, 1980
[15] = biological target: HLA-B*15:01; experiment: as above
[16] = biological target: HLA-A*31:01; experiment: as above
[17] = biological target: HLA-A*03:01; experiment: as above
[18] = biological target: HLA-A*68:02; experiment: as above
[19] = biological target: HLA-A*11:01; experiment: as above; details: source organism: Marburg virus - Musoke, Kenya, 1980
[20] = biological target: HLA-A*69:01; experiment: as above
[21] = biological target: HLA-B*15:17; experiment: as above
[22] = biological target: HLA-A*01:01; experiment: as above
[23] = biological target: HLA-B*58:01; experiment: as above
[24] = biological target: HLA-B*15:09; experiment: as above
[25] = biological target: HLA-B*08:02; experiment: as above
[26] = biological target: HLA-B*39:01; experiment: as above
[27] = biological target: HLA-A*02:01; experiment: IEDB peptide-MHC binding, purified MHC/competitive/fluorescence; filed as Kd, often an IC50 or EC50 that approximates it; ≥ and ≤ were set here for values at or beyond the usual limits of such assays; details: source organism: Orthomarburgvirus marburgense
[28] = biological target: HLA-A*26:01; experiment: as above; details: source organism: Orthomarburgvirus marburgense
[29] = biological target: HLA-A*30:01; experiment: as above; details: source organism: Orthomarburgvirus marburgense
[30] = biological target: HLA-A*26:02; experiment: as above
[31] = biological target: HLA-A*02:06; experiment: as above; details: source organism: Orthomarburgvirus marburgense
[32] = biological target: HLA-A*11:01; experiment: as above
[33] = biological target: HLA-B*57:01; experiment: IEDB peptide-MHC binding, purified MHC/competitive/radioactivity; filed as Kd, often an IC50 or EC50 that approximates it; ≥ and ≤ were set here for values at or beyond the usual limits of such assays
[34] = biological target: HLA-A*24:03; experiment: IEDB peptide-MHC binding, purified MHC/direct/fluorescence; filed as Kd, often an IC50 or EC50 that approximates it; ≥ and ≤ were set here for values at or beyond the usual limits of such assays
[35] = biological target: HLA-A*30:01; experiment: as above; details: source organism: Variola virus
[36] = biological target: HLA-C*14:02; experiment: as above; details: source organism: Variola major virus
[37] = biological target: HLA-C*15:02; experiment: as above; details: source organism: Variola major virus
[38] = biological target: HLA-B*18:01; experiment: IEDB peptide-MHC binding, purified MHC/competitive/fluorescence; filed as Kd, often an IC50 or EC50 that approximates it; ≥ and ≤ were set here for values at or beyond the usual limits of such assays
[39] = biological target: HLA-B*15:01; experiment: as above; details: source organism: Variola major virus
[40] = biological target: HLA-A*31:01; experiment: as above
[41] = biological target: HLA-A*68:02; experiment: as above
[42] = biological target: HLA-B*35:01; experiment: as above; details: source organism: Influenza A virus H3N2
[43] = biological target: HLA-B*57:01; experiment: as above; details: source organism: Influenza A virus H3N2
[44] = biological target: HLA-B*15:17; experiment: as above; details: source organism: Influenza A virus H3N2
[45] = source organism: Marburg virus - Musoke, Kenya, 1980
[46] = source organism: Ravn virus - Ravn, Kenya, 1987
[47] = source organism: Lake Victoria marburgvirus - Popp
[48] = source organism: Orthomarburgvirus marburgense
[49] = source organism: Dengue virus 3 Martinique/1243/1999
[50] = source organism: Dengue virus 4 Philippines/H241/1956
[51] = source organism: Buffalopox virus
[52] = source organism: Variola major virus
[53] = source organism: Influenza A virus (A/Swine/Italy/25823/94(H3N2))
[54] = source organism: Influenza A virus(A/swine/Shandong/fNY/2003(H9N2))
[55] = source organism: Influenza A virus H3N2

AAVLLLVTHY
Kd ([1]; source organism: Dengue virus 3 Singapore/8120/1995): 4.14 µM

CVFKFIVAK
Kd [2]: ≥ 20 µM
Kd [3, 45]: ≥ 20 µM
Kd [4, 45]: ≥ 20 µM
Kd [5, 46]: ≥ 20 µM
Kd [6, 45]: ≥ 20 µM
Kd [7, 46]: ≥ 20 µM
Kd [8, 46]: ≥ 20 µM
Kd [9, 45]: ≥ 20 µM
Kd [10, 45]: ≥ 20 µM
Kd [11, 45]: ≥ 20 µM
Kd [12, 46]: ≥ 20 µM
Kd [13]: ≥ 20 µM
Kd [14]: ≥ 20 µM
Kd [15, 45]: ≥ 20 µM
Kd [16, 45]: 0.275 µM
Kd [17, 45]: 0.391 µM
Kd [18, 45]: ≥ 20 µM
Kd [19]: 0.031 µM
Kd [20, 45]: ≥ 20 µM
Kd [21, 45]: ≥ 20 µM
Kd [22, 45]: ≥ 20 µM
Kd [23, 45]: ≥ 20 µM

FLMRNAIQY
Kd [3, 47]: ≥ 20 µM
Kd [4, 47]: ≥ 20 µM
Kd [24, 48]: ≥ 20 µM
Kd [5, 48]: ≥ 20 µM
Kd [9, 47]: ≥ 20 µM
Kd [10, 47]: ≥ 20 µM
Kd [11, 47]: 4.14 µM
Kd [12, 48]: ≥ 20 µM
Kd [15, 47]: 0.188 µM
Kd [16, 47]: ≥ 20 µM
Kd [18, 47]: ≥ 20 µM
Kd [20, 47]: ≥ 20 µM
Kd [25, 48]: ≥ 20 µM
Kd [21, 47]: 0.157 µM
Kd [22, 47]: 0.0372 µM
Kd [26, 48]: ≥ 20 µM
Kd [23, 47]: ≥ 20 µM
Kd [27]: 0.254 µM
Kd [28]: 2.58 µM
Kd [29]: 2.77 µM
Kd [30, 48]: 1.92 µM
Kd [31]: 2.27 µM
Kd [32, 48]: 3.87 µM

KAAVEDEDF
Kd [1, 49]: 0.0766 µM

LGKAYAQMW
Kd [33, 49]: 0.207 µM

RTSCLQKQSH
Kd [33, 50]: 0.61 µM

RYPGVMYAF
Kd ([24]; source organism: Variola virus): ≥ 20 µM
Kd ([5]; source organism: Variola virus): ≥ 20 µM
Kd [6, 51]: ≥ 20 µM
Kd [34, 51]: 0.002 µM
Kd ([8]; source organism: Variola virus): ≥ 20 µM
Kd [9, 51]: ≥ 20 µM
Kd [10, 51]: ≥ 20 µM
Kd [35]: 4 µM
Kd ([12]; source organism: Variola virus): ≥ 20 µM
Kd [36]: 0.016 µM
Kd [20, 51]: ≥ 20 µM
Kd [22, 51]: ≥ 20 µM
Kd ([26]; source organism: Variola virus): ≥ 20 µM
Kd [23, 51]: ≥ 20 µM
Kd [37]: ≥ 20 µM
Kd [38, 52]: 0.989 µM
Kd [30, 52]: 4.76 µM
Kd [39]: 3.62 µM
Kd [40, 52]: 0.122 µM
Kd [41, 52]: ≥ 20 µM
Kd [32, 52]: 4.3 µM

SFSFGGFTF
Kd [3, 53]: ≥ 20 µM
Kd [24, 54]: ≥ 20 µM
Kd [6, 53]: ≥ 20 µM
Kd [34, 53]: ≤ 0.001 µM
Kd [7, 54]: ≥ 20 µM
Kd [9, 53]: ≥ 20 µM
Kd [12, 54]: ≥ 20 µM
Kd [15, 53]: 0.0375 µM
Kd [17, 53]: ≥ 20 µM
Kd [25, 54]: ≥ 20 µM
Kd [22, 53]: ≥ 20 µM
Kd [23, 53]: 0.0625 µM
Kd [38, 55]: 0.2 µM
Kd [42]: 0.285 µM
Kd [43]: 2.36 µM
Kd [30, 55]: 1.84 µM
Kd [40, 55]: ≥ 20 µM
Kd [41, 55]: 2.44 µM
Kd [32, 55]: ≥ 20 µM
Kd [44]: 0.04 µM

TTRLENIMW
Kd [33, 50]: 0.0133 µM
